What all share (type): cell-based, mouse
The subject of one assay is ESCs. Description: Colony formation assay (alkaline phosphatase staining) after pulse treatment. The settings on record: during transient glutamine withdrawal and in the presence of exogenous glutamine; FIG. 7H, 7I. As for the experimental part:
For transient glutamine withdrawal (“pulse”) experiments, cells were initially plated in standard S/L medium as described above. The following day, cells were washed with PBS and then changed to experimental medium containing a 1:1 mix of glutamine-free DMEM and glutamine-free Neurobasal medium including 10% dialyzed FBS, 2-mercaptoethanol, LIF, and containing (“Ctrl”) or lacking (“Pulse”) L-glutamine as indicated. 24 hours later, cells were washed with PBS and then returned to glutamine-replete medium (“Recover”). 24 hours later, cells were subjected to either image analysis, flow cytometry, or plated for colony formation assays as indicated. For glutamine pulse experiments in human ESCs, cells were initially plated at a density of 300,000 cells/well in a tissue-culture treated polystyrene 12-well plate coated with vitronectin (Thermo Fisher Scientific, A14700) in E8 medium (Thermo Fisher Scientific, A1517001) containing 10 uM ROCK inhibitor Y-27632 (Selleck Chemicals S1049). 24 hrs after plating, medium was changed to modified E8 medium containing: DMEM high glucose without glutamine (Thermo Fisher 11960044), 10.7 mg/L Transferrin (Sigma T0665), 64 mg/L L-Ascorbic Acid (Sigma A890), 14 ug/L Sodium Selenite (Sigma S5261), 543 mg/L Sodium Bicarbonate (Research Products International 144558), 19.4 mg/L insulin (Sigma 19278), 100 ug/L bFGF (EMD Millipore GF003AF), 2 ug/L TGFβ1 (Peprotech 10021), and 2 mM L-glutamine. After 24 hrs of culture in modified E8 medium, medium was changed to modified E8 medium containing 2 mM or 0 mM L-glutamine for 24 hrs. All cells were then changed to modified E8 medium containing 2 mM L-glutamine and cultured for 24 hrs before harvest for analysis. […] For ESC colony formation assays, colonies were scored manually in a blinded fashion. For reprogramming experiments, alkaline-phosphatase colonies were scored automatically using ImageJ (NIH). Briefly, images of each well were binarized using the Default function and particles greater than 8 pixels with a circularity of 0.7-1.0 were counted.

The test system of a further assay is JAK/STAT3 signaling. Description: Immunoblot of phospho-STAT3 and total STAT3. The settings on record: ESCs expressing chimeric GCSF-responsive LIF receptor; FIG. 5A. As to the method:
Protein lysates were extracted in 1× radioimmunoprecipitation assay buffer (Cell Signaling Technology), separated by SDS—polyacrylamide gel electrophoresis and transferred to nitrocellulose membranes (Bio-Rad). Membranes were blocked in 3% milk in Tris-buffered saline with 0.1% Tween20 (TBST) and incubated at 4° C. with primary antibodies overnight. After TBST washes the next day, membranes were incubated with horseradish peroxidase-conjugated secondary antibodies for 2 h, incubated with enhanced chemiluminescence (Thermo Fisher Scientific) and imaged with an SRX-101A X-ray Film Processor (Konica Minolta). The antibodies used (at 1:1,000 unless otherwise stated) were: Nanog (catalogue no. AF2729; R&D Systems); KLF4 (catalogue no. ab129473; Abcam), phospho-Stat3 (catalogue no. 9138; Cell Signaling Technology); Stat3 (124146, catalogue no. 9139; Cell Signaling Technology), and α-Tubulin (1:10,000, catalogue no. 79026; Sigma-Aldrich).
(Immunoblotting shows a protein as a band on a membrane.)

The subject of assay [1] is ESCs expressing the G-CSF-activated LIF receptor transgene. Kind of assay: GC-MS isotope tracing of [U-13C]glucose or [U-13C]glutamine. As for the experimental part:
Steady state TCA cycle metabolite measurements. Cells were seeded in standard S/L medium in 6-well plates. 24 hours later, cells were washed with PBS and changed into experimental medium containing a 1:1 mix of glutamine-free DMEM and glutamine-free Neurobasal medium including 10% dialyzed FBS, 2-mercaptoethanol, LIF, and 2 mM L-glutamine. The next day, cells were washed with PBS and subjected to the same experimental medium either with or without 2 mM glutamine. 8 hours later, metabolites were extracted with 1 mL ice-cold 80% methanol containing 2 μM deuterated 2-hydroxyglutarate (D-2-hydroxyglutaric-2,3,3,4,4-d5 acid, d5-2HG) as an internal standard. After overnight incubation at −80° C., lysates were harvested and centrifuged at 21,000 g for 20 minutes to remove protein. Extracts were dried in an evaporator (Genevac EZ-2 Elite) and resuspended by incubating at 30° C. for 2 hours in 50 μL of 40 mg/mL methoxyamine hydrochloride in pyridine. Metabolites were further derivatized by addition of 80 μL of MSTFA+1% TCMS (Thermo Scientific) and 70 μl ethyl acetate (Sigma) and then incubated at 37° C. for 30 minutes. Samples were analyzed using an Agilent 7890A GC coupled to Agilent 5977C mass selective detector. The GC was operated in splitless mode with constant helium gas flow at 1 mL/min. 1 μl of derivatized metabolites was injected onto an HP-5MS column and the GC oven temperature ramped from 60° C. to 290° C. over 25 minutes. Peaks representing compounds of interest were extracted and integrated using MassHunter software (Agilent Technologies) and then normalized to both the internal standard (d5-2HG) peak area and protein content of duplicate samples as determined by BCA protein assay (Thermo Scientific). Ions used for quantification of metabolite levels are as follows: d5-2HG m/z 354; αKG, m/z 304; aspartate, m/z 334; citrate, m/z 465; fumarate, m/z 245; glutamate, m/z 363; malate, m/z 335 and succinate, m/z 247. All peaks were manually inspected and verified relative to known spectra for each metabolite.
Isotope tracing studies. For isotope tracing studies, cells were seeded in standard S/L medium in 6-well plates. 24 hours later, cells were washed with PBS and changed into experimental medium containing a 1:1 mix of glutamine-free DMEM and glutamine-free Neurobasal medium including 10% dialyzed FBS, 2-mercaptoethanol, LIF, and 2 mM L-glutamine. […] Enrichment of ^13C was assessed by quantifying the abundance of the following ions: aKG, m/z 304-318; aspartate, m/z 334-346; citrate, m/z 465-482; fumarate, m/z 245-254; glutamate, m/z 363-377 and malate, m/z 335-347. […]

The subject of assay [2] is Stat3 target gene Tfcp2l1 and key transcription factors associated with naïve pluripotency. Description: qRT-PCR of STAT3-target genes and other key pluripotency genes. The note with it: ESCs expressing GCSF-activated LIF receptor; FIG. 5B. As to the method: RNA was isolated from six-well plates using Trizol (Invitrogen) according to manufacturer instructions. 200 ng RNA was used for cDNA synthesis using iScript (BioRad). Quantitative real-time PCR analysis was performed in technical triplicate using QuantStudio 7 Flex (Applied Biosystems) with Power SYBR Green (Life Technologies). All data were generated using cDNA from triplicate wells for each condition. Actin was used as an endogenous control for all experiments. The following primers were used: […]

Turning to `CCOC(=O)CCNc1cc(N2CCc3ccccc3CC2)nc(-c2ccccn2)n1` [GSK-J4], the “ESC self-renewal (Nanog-GFP, colony formation)” value in the assay with ESCs was “impaired ESC self-renewal”.

B1: GCSF: granulocyte colony-stimulating factor, activates the chimeric LIF receptor transgene (protein, UniProt P09919 31-207, looked up)
Granulocyte …: TPLGPASSLPQSFLLKCLEQVRKIQGDGAALQEKLVSECATYKLCHPEELVLLGHSLGIPWAPLSSCPSQALQLAGCLSQLHSGLFLYQGLLQALEGISPELGPTLDTLQLDVADFATTIWQQMEELGMAPALQPTQGAMPAFASAFQRRAGGVLVASHLQSFLEVSYRVLRHLAQP
As for B1, in the assay on JAK/STAT3 signaling, the “JAK/STAT3 signaling (phospho-STAT3)” value was “elevated and sustained JAK/STAT3 signaling”. Also, the “intracellular pools of glutamate when deprived of exogenous glutamine” value in assay [1] ([U-13C]glucose, 4 h glutamine withdrawal, FIG. 5C) is “able to use glucose and other anaplerotic substrates to maintain intracellular pools of glutamate”. The “fraction of TCA cycle metabolites derived from oxidative decarboxylation of glucose-derived pyruvate (m+2 isotopologues)” value in assay [1] ([U-13C]glucose, FIG. 1B) is reported as “increased”. Moreover, the “fraction of metabolites derived from glutamine catabolism” value in assay [1] ([U-13C]glutamine, FIG. 1D) is on record as “decreased”. The “fraction of glutamate derived from glutamine” value in assay [1] ([U-13C]glutamine, control ESCs more than 80%, FIG. 1D) is on record as 60%. Also, the “expression of Tfcp2l1 and naïve pluripotency transcription factors” value in assay [2] is “enhancing expression”.

Source of the values: US20220306986A1, “NON-INVASIVE METHODS FOR SELECTIVELY ENRICHING PLURIPOTENT CELLS” (MEMORIAL SLOAN-KETTERING CANCER CENTER, priority 2019, published 2022).
